Laboratory results from patent publication US20030167129A1, “Binding compounds and methods for identifying binding compounds” (priority 2000, published 2003).
Where a SMILES comes first, the peptide text is derived from it. Where no end group is shown, it is not given here. [ ]: non-standard residue; d: D form. pY = N[C@@H](Cc1ccc(OP(=O)(O)O)cc1)C(=O)O; 2Nal = N[C@@H](Cc1ccc2ccccc2c1)C(=O)O; Tic = O=C(O)[C@@H]1Cc2ccccc2CN1

How the values were obtained:
CXCR4 = target: T1, CXCR4 (Homo sapiens, UniProt P61073); test: radioligand binding assay, [125I]-SDF-1α on membrane preparations of GST-CXCR4 (High Five); conditions: increasing [125I]-SDF-1α 0.5 nM to 10 nM; GST-CXCR4 (High Five) membranes; FIG. 7A; read-out: KD, saturation binding
T1 construct: A full-length clone was not isolated with the 3′ and 5′ primers; however, two halves were isolated and ligated together; made in house; host or cells: High Five (Trichoplusia ni) insect cells, baculovirus; membrane preparation
T1 sequence (P61073 whole entry): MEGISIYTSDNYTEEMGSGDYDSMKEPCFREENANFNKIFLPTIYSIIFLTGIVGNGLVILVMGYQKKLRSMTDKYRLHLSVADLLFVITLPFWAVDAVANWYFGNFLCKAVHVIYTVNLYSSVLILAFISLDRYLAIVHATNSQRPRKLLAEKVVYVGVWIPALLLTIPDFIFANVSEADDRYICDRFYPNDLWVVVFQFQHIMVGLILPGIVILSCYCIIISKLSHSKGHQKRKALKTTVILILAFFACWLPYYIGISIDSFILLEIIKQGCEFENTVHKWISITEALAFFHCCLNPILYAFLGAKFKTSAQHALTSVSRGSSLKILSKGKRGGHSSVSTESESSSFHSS
Experimental: Relative affinities were measured by modifying the radiolabel binding assay used in receptor purification. Therefore, the ability of these peptides to displace [1^251]-SDF-1 from purified CXCR4 membranes was measured.
Whole cells from Sf9 and High five cell lines were lysed using hypotonic buffers (10 mM Tris, pH 7.4, 5 mM EDTA), and membrane preparations were made by homogenization and centrifugation using standard techniques known to those skilled in the art. […] For filtration and washing, the reaction was transferred to Millipore Multiscreen filter plates (HATF 0.45 μm; pre-blocked with 10% BSA) (Bedford, Mass.), filtered using vacuum, washed 4-5 times with 200 μL ice-cold buffer, and radioactive counts bound were detected using scintillation counting. All points were done in triplicate. Uninfected cells were used as a control for this experiment. […] Analyses of KD and IC50 were performed using non-linear curve fitting in Kaleidagraph (software program sold by Synergy Software, Reading, Pa.).
The affinity for the receptor was determined using standard radioligand displacement methodology.

HIV IIIb = format: cell-based, HIV-1
Experimental: Several of these peptides have also been screened for activity in inhibition of HIV infectivity and determined to be effective in specifically blocking the entrance of HIV into cells with EC50's in the nM range. For example, the assays depicted in FIG. 12 confirm the inhibition of HIV infection by CXCR4 peptide inhibitors.
The anti-HIV activity of exemplary compounds was tested using established adherent HELA cells or Magi cell-based (Magi cell line incorporating the reporter genes) cell line infected with a variety of HIV-1 isolates. Inhibitory activity was determined using a reporter system. The cell line was modified to contain the gene for the HIV-LTR (long terminal repeat) promoter which is used by HIV after infection. This gene was coupled to an enzyme, β-galactosidase, which can cleave a substrate, CPRG (Chlorophenol red β-D-galactoside) which gives rise to a colored signal or FDG (Fluorescein di-Galactoside) which gives rise to a fluorescent signal. Thus, if the cell becomes infected with HIV, it couples to the HIV-LTR promoter, producing the enzyme β-galactosidase, which then cleaves the CPRG substrate giving rise to a measurable absorbance signal, for example, at or about 595 nm. […]
Measurements were taken four days after infection. […] EC50's were determined graphically using Kaleidagraph, a software program sold by Synergy Software, Reading, PA. […]

SH2 (src) = target: T2, SH2 (src) (Homo sapiens, UniProt P12931); conditions: binding domain SH2 (src); cited from earlier work
T2 construct: SH2 (src)

With “[^125I]-SDF-1α: radiolabeled SDF-1α, the radioligand of the CXCR4 binding assay” the Kd (CXCR4) was 3.27 nM.
With `CC[C@H](C)[C@H](NC(=O)[C@H](CC(C)C)NC(=O)[C@H](CO)NC(=O)[C@H](CCCNC(=N)N)NC(=O)[C@H](C)N)C(=O)N[C@@H](Cc1ccc2ccccc2c1)C(=O)N[C@@H](CCCNC(=N)N)C(=O)N1Cc2ccccc2C[C@H]1C(=O)N[C@@H](C)C(=O)N[C@@H](CCCNC(=N)N)C(=O)N[C@@H](CCCNC(=N)N)C(=O)N[C@@H](Cc1ccc2ccccc2c1)C(=O)N[C@@H](CCCNC(=N)N)C(=O)N[C@@H](CCCNC(=N)N)C(N)=O` [CPI-1500, ARSLI(2-Nal)R(Tic)ARR(2-Nal)RR] (H-ARSLI[2Nal]R[Tic]ARR[2Nal]RR-NH2; N-terminus assumed) the viral specificity (HIV IIIb; HIV IIIb versus R5 virus 9881) was “specificity for the HIV IIIb over the R5 virus 9881” and the EC50 (HIV IIIb; HIV IIIb, FIG. 12A, read-out: EC50, inhibition of infection of HIV IIIb) was 280 nM.
For pYEEIY ([pY]EEIY), the Kd (SH2 (src)) is given as 100 nM.
